Measurements taken from US8492329B2, “Bioactive peptides and methods of using same” (Compugen Ltd., priority 2007, dated 2013).

How the values were obtained:
Format in all cases: cell-based
GPR135 (RXFP3) = biological target: T1, GPR135 (RXFP3) (Homo sapiens, UniProt Q9NSD7); assay: cAMP HTRF assay on Euroscreen RXFP3 recombinant cells; settings: increasing concentrations, 30 min; FIG. 5
T1 construct: host or cells: CHO-K1 recombinant cell line (Euroscreen)
T1 sequence (Q9NSD7 1-469): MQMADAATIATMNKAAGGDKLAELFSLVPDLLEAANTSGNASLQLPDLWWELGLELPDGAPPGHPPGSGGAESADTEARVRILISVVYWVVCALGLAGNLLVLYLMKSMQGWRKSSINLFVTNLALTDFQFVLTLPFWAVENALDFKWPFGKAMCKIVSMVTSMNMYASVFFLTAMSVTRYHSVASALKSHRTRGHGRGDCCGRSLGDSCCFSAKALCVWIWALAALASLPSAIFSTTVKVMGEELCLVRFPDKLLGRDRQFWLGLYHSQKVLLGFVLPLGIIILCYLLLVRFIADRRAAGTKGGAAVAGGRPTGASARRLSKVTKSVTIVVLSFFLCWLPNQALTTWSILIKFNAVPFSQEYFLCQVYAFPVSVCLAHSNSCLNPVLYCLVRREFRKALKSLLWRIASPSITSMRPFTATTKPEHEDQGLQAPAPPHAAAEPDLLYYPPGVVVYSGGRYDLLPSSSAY
Procedure: The ability of P59C13V (SEQ ID NO: 6) and H3 Relaxin to activate CHO-K1 cells transfected by GPR135 (RXFP3), which is a non-LGR, Relaxin related receptor, was tested. The assay was performed by Euroscreen. For cAMP concentration analysis, Euroscreen cat. ES-656-A-cells (RXFP3, Euroscreen cat. ES-656-A) grown to mid-log phase in culture media without antibiotics were detached with PBS-EDTA, centrifuged and resuspended in assay buffer at a concentration of […]. The test was performed in 96 well plates. For agonist testing, 12 μl of cells (5×10^3 cells/well) were mixed with 12 μl of agonist Either H3-Relaxin or P59C13V (P59) (SEQ ID NO: 6) at increasing concentrations. The plates were then incubated for 30 min at room temperature. After addition of the lysis buffer, cAMP concentrations were estimated, according to the manufacturer specification, with the HTRF kit from Cis-Bio International (cat no 62AM2PEB).
.Relaxin 3 Fit (Eeuroscreen) was used as a positive control. RXFP3 (GPCR135) transfected cells were challenged with increasing concentrations of Relaxin 3 (H3 Relaxin—as a positive control—[…]) or P59C13V (P59) (SEQ ID NO: 6) (1 nM-3 uM).

LGR8 (RXFP2) [1] = biological target: T2, LGR8 (RXFP2) (Homo sapiens, UniProt Q8WXD0); assay: cAMP accumulation (Hit Hunter cAMP kit) in CHO-K1 cells transiently transfected with LGR8; set-up: expressed in transfected cells; host or cells: CHO-K1 (transient); settings: 20 uM Forskolin, FIG. 2
T2 sequence (Q8WXD0 whole entry): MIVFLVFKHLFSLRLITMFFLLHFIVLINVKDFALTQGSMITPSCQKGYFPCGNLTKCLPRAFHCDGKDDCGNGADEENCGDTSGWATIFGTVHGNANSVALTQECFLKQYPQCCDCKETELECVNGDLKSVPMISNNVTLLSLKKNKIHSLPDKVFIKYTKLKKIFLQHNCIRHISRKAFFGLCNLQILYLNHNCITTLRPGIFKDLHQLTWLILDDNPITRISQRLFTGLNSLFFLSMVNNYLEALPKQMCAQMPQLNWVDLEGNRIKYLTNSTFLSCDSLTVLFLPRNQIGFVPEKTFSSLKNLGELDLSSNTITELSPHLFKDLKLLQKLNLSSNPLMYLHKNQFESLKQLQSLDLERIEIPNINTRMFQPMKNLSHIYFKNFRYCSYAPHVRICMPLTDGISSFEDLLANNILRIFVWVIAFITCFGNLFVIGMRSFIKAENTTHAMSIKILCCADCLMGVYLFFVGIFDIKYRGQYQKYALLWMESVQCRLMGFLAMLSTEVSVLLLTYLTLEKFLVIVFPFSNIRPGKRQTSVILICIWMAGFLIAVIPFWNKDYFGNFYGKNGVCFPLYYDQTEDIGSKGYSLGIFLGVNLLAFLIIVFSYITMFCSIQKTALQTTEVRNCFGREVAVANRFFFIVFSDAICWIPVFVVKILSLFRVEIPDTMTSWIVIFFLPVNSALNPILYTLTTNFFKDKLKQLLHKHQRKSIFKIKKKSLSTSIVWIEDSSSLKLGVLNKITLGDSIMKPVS
Procedure: The ability of Peptides to affect cAMP concentration was examined in CHO-K1 cells transiently transfected with LGR7 (RXFP1) or LGR8 (RXFP2). The experiment measured cAMP concentration in response to the addition of the peptides.
LGR7 (RXFP1) or LGR8 (RXFP2) were transiently transfected into CHO-K1 cells as follows: Cells (12 million) were plated into T75 flasks on the day preceding transfection. Cells were transfected with a GPCR DNA and Gα16 using a lipid technique according to the manufacturer's recommendation. Cells were transfected for 5 hours, then re-plated into 96-well dishes (60,000 cells per well) and grown overnight. Transfected cells were plated into 24 wells of a 96-well plate. Cells were pre-treated with 0.5 mM IBMX (stimulation buffer) for 10 min at 37° C., then stimulated with either a positive control (Relaxin 2) or a candidate peptide (for Gs functional examination), followed by stimulation or a preincubation with 10 μM forskolin (for Gi functional examination). Following a 20 minutes stimulation by incubation with 1 μM of either positive control or the tested peptides, either with or without forskolin, intracellular cAMP was assayed using the Hit Hunter cAMP kit (DiscoveRx Corporation) according to the manufacturer's recommended protocol. Data was converted to nmol of cAMP by running a standard cAMP curve.
Relaxin was used as a positive control. cAMP level was elevated by pre-treatment with forskolin.
The transfected CHO-K1 cells were treated with 10 uM of Forskolin (Applied cell sciences (ACS)) for 10 minutes and then challenged with 1 uM of H2 Relaxin (ACS) (as a positive control), 1 uM of Peptide P59C13V (P59) (SEQ ID NO: 6), and Peptide P74C13V (P74) (SEQ ID NO: 10).
A dose response effect of P59C13V (P59) and P74C13V (P74) on CHO-K1 cells transiently transfected with LGR8 (RXFP2) was further examined (Method as above). CHO-K1 cells transiently transfected with LGR8 (RXFP2) were treated with 20 uM of Forskolin for 10 minutes and then challenged with either INSL3 (as a positive control), P59C13V (SEQ ID NO: 6) or P74C13V (P74) (SEQ ID NO: 10) at increasing concentrations from 1 nM to 10 uM.

LGR8 (RXFP2) [2] = biological target: T2, LGR8 (RXFP2); assay: pCRE-β-gal reporter assay in Forskolin-treated CHO-K1 cells transiently transfected with LGR8; set-up: expressed in transfected cells; host or cells: CHO-K1 (transient); settings: 5 uM Forskolin, FIG. 8A-B
Procedure: The ability of P74C13V (P74) (SEQ ID NO: 10) and P59C13V (P59) and P59C13V-Amide (P59-Amide) (SEQ ID NO: 6 and 5 respectively) to activate LGR7 (RXFP1) and LGR8 (RXFP2) was further tested by testing the ability of these peptides to influence cAMP activity induced by 5 μM Forskolin in CHO-K1 cells transiently transfected with LGR7/pCRE-β-gal or LGR8/pCRE-β-gal as compared to H2 relaxin and INSL3 respectively.
LGR8 transfected CHO-K1 cells were treated with 5 uM of Forskolin to stimulate cAMP. The cells were then challenged with increasing doses of INSL3 (as positive control), P74C13V (P74) (SEQ ID NO: 10), P59C13V with (P59-Amide) and without (P59) amide (SEQ ID NO: 5 and 6, respectively) and P59S-Amide (P59-S) (SEQ ID NO: 1). […] The results are presented as a percentage of Forskolin activity at various concentrations of the peptide (logarithmic scale). Each point represents three unrelated repeats for each experiment.

| cAMP activation (Gs) of RXFP3 (GPR135 (RXFP3)) | change in cAMP, dose response, higher concentrations (LGR8 (RXFP2) [1]; concentrations higher than 100 nM (up to 10 uM)) | change in cAMP, dose response, lower concentrations (LGR8 (RXFP2) [1]; concentrations lower than 100 nM) | Substance | CRE activation pattern relative to Forskolin (LGR8 (RXFP2) [2]) |
| --- | --- | --- | --- | --- |
| strong cAMP stimulation |  |  | H3 Relaxin: Relaxin 3 (Euroscreen), ligand of RXFP3, positive control [reference compound] |  |
|  | sharp decrease (Gi effect) | slight dose dependent increase | INSL3: Leydig insulin-like 3 peptide, high affinity ligand of LGR8, positive control (chain 1 AAATNPARYCCLSGCTQQDLLTLCPY; chain 2 PTPEMREKLCGHHFVRALVRVCGGPRWSTEA) [reference compound] | increased activation at higher concentrations |
